The source of these data is FireProtDB (doi:10.1093/jb/mvy087).

For the data set the following is noted: Equus caballus; pH 7; Thermal; CD; CAPS buffer; transition: 2; reversible: yes.

Cytochrome c wild type, P00004, sequence (P00004 whole entry): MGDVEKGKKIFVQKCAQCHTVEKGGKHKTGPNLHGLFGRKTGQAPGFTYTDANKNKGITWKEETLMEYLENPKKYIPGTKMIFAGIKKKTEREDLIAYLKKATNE

Take Cytochrome c wild type, P00004: the melting temperature (Tm) was determined as 83.4 °C, the “heat capacity change of unfolding” value came out at 1.3 kcal/mol/K and the “unfolding enthalpy (calorimetric)” value was 76.7 kcal/mol.
